According to the nanobody polyreactivity screen of Harvey et al. (2022):

test: yeast display, Sf9 membrane polyspecificity reagent, FACS + sequencing; frameworks hold sequencing errors
Summary of the method: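 Nanobodies from a synthetic yeast display library (Saccharomyces cerevisiae BJ5465), induced 36–48 hours with galactose, were stained 1 hour at 4 °C with 10% biotinylated, detergent-solubilized Sf9 membrane reagent, enriched on streptavidin microbeads, then FACS-sorted. Anti-HA (expression) and streptavidin (reagent binding) fluorescence set low and high (top ~1%) gates. Polyreactivity labels come from the gate of origin. Genes were colony-PCR amplified, MiSeq 2 × 250 sequenced and filtered by CDR length.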

| Sequence | polyreactivity (PSR sort gate) |
| --- | --- |
| QVQLVESGGGLVQAGGSLRLSCAASGGIFGYYAMGWYRQAPGTEREFVAAITARGGRTYYADSVKGRFTISRDNAKNTVYLQMNSLKPEDTAVYDCAAYSPVWGRYYHRVERDYWGQGTQVTVSS | high polyreactivity |
| QVQLVESGVGLVQAGGRLRLSCAASGSIFYYYAMGWYRQAPGKERELVAAISGTGGSTYYADSVKGRFTISRDNAKITFYLQMNSLKPEDTAVYYCAASFYIERHRYIYWGQGTQVTVSS | high polyreactivity |
| QVQLVESGGGLVQAGGSLRLSCAASGSTFITYAMGWSRQAPGKERELVAAISDSGGDTYYADSVKGRFTISRDYAKNTVYLQMISLNPEDTAVFYCAAEDDRYVYGDMNYWGQGTQVTVSS | low polyreactivity |
| QVQLVESGGGLVQAGGSLRLSCAASGLTFGFYARGWYTQAPGKERQLVPRISNGGSTNYADSVKGRFTISRDNAKNTVYLQMNSLKPEDTAVYYCNAGLVLPPPGAYIVYFDQMDYWGQGTQVTVSS | low polyreactivity |
| QVHLVESGVGLVQAGGSLRLSCAASGYTFPAYAMGRYRQAPVKERELVAGISSGGRTYYAYSVKGRFTISRDNAKNTVYLQMNSLKPEDTAVYYCAAFRFYWQSPERYYYWGQGTQVSVSS | high polyreactivity |
| QVQLVESGGGLVQAGGSLRLSCAASGFIFYRYAMGWYRQAPGKERELVAAITGSGARTYYADSVKGRFTISRDNAKNTVYLQMNSLKPEDTAVYYCAARYILSKYGSGVRYNYWGQGTQVTVSS | high polyreactivity |
| QVQLVESGGGLVQAGGSLRLSSAASGRIFPHNAMGWYRQAPGKERELVAAISSNGGSTYYADSVKGRFTISRDNAKNTVYLQMNSLKPEDTAVYYCAKYRYFAGDGDYWGQGTQVTVSS | low polyreactivity |
| QVQLVESGGGLVQAGGSLRLSCAASGFISYPYAMGWSRPAPGKERELVAAISSSGGSTYYADSVKGRFTISRDNAKNTVYLQMNSLIPEDTAVYYCAARGFYRSYYWGQGTHVTVSS | high polyreactivity |
| QVQLVESGGGLVQAGGSLRLSCAASGRIFYNYAMGWYRQAPGKERELVAAISGSGGSTYYADSVKGRFTISRDNAKKTVYLQMNSLKPEDTAVYYCSTSGPQYYSRNFDYWGQGTQVTVSS | low polyreactivity |
| QVHLVESGGGLVQAGGSLRLSCAASGRILVQNDMGWYRQAPGKERELVAAIRSDGSTSYADSVKGRFTISRDNAKNTVYLQMNSLKPEDTAVYYCAARIDWTGGEYDYWGQGTQVTVSS | low polyreactivity |
| QVQLVESGGGLVQAGGSLRLSCAASGFIFKNYAMGWYRQAPGKERELVAAITSSGGNTYYADSVKGRFTISRDNAKNTVYLQMNSLKPEDTAVYYCNARFRTLYWGQGTQVTVSS | high polyreactivity |
| QVQLVESGGGLVQAGGSLRLSCAASGSIFPEYAMGWYRQAPGKEREFVATIRWSGDSTYYADSVKGRFTISRDNAKNTVYLQMNSLKPEDTAVYYCAADQGRYGIIGWDDYWGQGTQVTVSS | low polyreactivity |
| QVQLVESGGGLVQAGGSLRLSCAASGFIFGNYAMGWYRQAAGNERELVAAISQRGGTTYYADSVKGRFTISRDNAKNTVYLQMNSLKPEDTAVYYCKAYYIGYYVDYEYWGQGTQVTVSS | high polyreactivity |
| QVQVVESGGGLVQAGGSLRLSCAASGSICHVNAMGWYRQAPGKERELVADISKRGASTYYADSVKGRFTISRDNAKNTVYLQMNSLKPEDTAVYYCAARVVTPRRQWYTYDYWGQGTQVSVSS | high polyreactivity |
| QVQLVDSGGGLVQAGGSLRLSCAASGRILSTYPMGWYRPAPGKERELVAAITRTSGSTYYADSVKGRFTISRDNAKNTVFLQMNSLKPEDTEVYYCAADTWLITWSGQYNSWGQGTQVTVSS | low polyreactivity |
| QVQLQESGGGLVQAGGNLRLSCAACGNIFPSAVMGWYRQALGKEREFVATINSGSNTYYADSVKGRFTISRDHAKNTVYLQTNSLKLEDTAVYYCAAYFKLPAWHTYWGQGTQVTVSS | low polyreactivity |
| QVQLVESGGGLVQAGGSLRLICAASGGTFGRNAMGWYRQAPGKERELVATITRRGGSTYYADSVKGRFTISRDNAKNTVYLQMNSLKPEDTAVYYCNALVTTTPRYDYWGQGTQVTVSS | high polyreactivity |
| QVQLVESGGGLVQAGGSLRLSCAASGRTFYINAMGWYRQAPGKERELVATISRSGGDTYYADSVKGRFTISRDNAKNTVYIEMTSLKPEDTAVYFCNARQYYYRSGAYASRYLYNYWGQGTQVTVSS | high polyreactivity |
| QVQLVESGGGLVQAGGSLRLSCAASGYIFRYYAMGWYRQAPGKERELVAAISRSGGNTYYADSVKGRFTISRDNAMITVYLQMNSLKPEDTAVYYCAVVLSTYSYADYDYWGQGTQVTVSS | high polyreactivity |
| QVQLLETGGGLVQAGGSLRLSCAASGITFKYYSMGWYRQAPGKERELFATITKRGGSTYYADSVKGRFTISRDNAKNTVYLQMNSLKPVDTAVYYCAAEILIRFWGVQWGGEYWGQGTQVTVSS | high polyreactivity |
| QDQLVESGGGLVQAGGSLRLSCAASGITFRYYAMGWYRQAPGKERELVAAITGGGGSTYADSVKGRFTISRDNAKNTVYLQMNSLKPEDTAVYYCNATPRARSLPLRYQHDYWLQGTQVTVSS | low polyreactivity |
| QVQLVESGGGLVQAGGSLRLSCAASGRIFVDNTMGWYRPAPGKERELVAAISRRGTSTYYADSVKGRSTISRDNAKNTVYLQMNSLKPEDTAVYYCAADYYYYDSQQGMDYWGQGTQVTVSS | high polyreactivity |
| QVQLVESGGCLVQAGGSLRLSCAASGSTFIDYAMGWYRQAPGKERELVAAITNGGNTKYADSVKGRFTISRDNAKNTVYLQMNSLKPEDTAVYYCAREPSIFTPSYDYWGQGTQVTVSS | low polyreactivity |
| QVQLVESGGGLVQAGGRLRLSCAASGRTFRPYALGWYRQPPVKERELVAAIDSSGTSTYYADSVKGRFTISRDNAKNTVYLQMNSLKPEDTAVYDCAQASPDHWYSRYDYWGQGTQVTVSS | low polyreactivity |
| KVQLVESGGVLVQAGGSLRLICAASGRTFYGYAMGWSRQAPGKERELVAGITSGGSTTYADSVKGRFTISRDHAKKTVYLQMNSLKPEDTAVYYCAKKWYRTTRAYVFRSYDYWGQGTQVTVSS | high polyreactivity |
| QVQLVESGGGLVQAGGSLRLSCAASGSTFDHYTMGWYRPAPGKERELVAAINRIGDSTYYADSVKGRFTISRDNAKNTVYLQMNSLKPEDTAVYYCAARHVPRFNKYGYWGQGTQVTVSS | high polyreactivity |
| QVQHVESGGGLVQAGGSLRLSCAASGITYGRYTMGWYRQAPGKERELVAAITNGDITYYADSVKGRFTISRDNAKNTVYLQMNSLKQEDTAVYYCAADRYFWYDYWGQGTQVTVSS | high polyreactivity |
| QVQLVESGGGLVQSGCSLRLSCAASGRIFDRYAMGSYRQAPGKERELVAAISSSGGSTYYADSVKGRFTISRDHAKNTVYLLMNSLKPEDTAVYYCATGTSRYRHQRDYWGQGTQVTVSS | high polyreactivity |
| QVQLVESGGGLVQAGGSLRLSCDASGRTFGQNAMGWYRQAPGTERELVDAISASGSNTYYADSVKGRFTISRDNAKNTVYLQMNSLKPEDTAVYYCAKQVYRPGQQSRYDYWGQGTQVTVSS | low polyreactivity |
| QVQLVESGGGLVQAGGSLRLSCAASGFTFARYTMGWYRQAPGKERELVAAISSRGSSTYYADSVKGRFTISRDNAKNTVFLQMNSLKPEDTAVYYCAASPYDTQSLDYDYWGQGTQVTVSS | high polyreactivity |
